This is an account of results in US20130171059A1 (AbbVie / Abbott, published 2013).

The target in assay [1] is T1, Recombinant Human TNF-α/TNFSF1A (human, UniProt P01375 77-233). Put plainly: cell-based or functional assay.
The target of assay [2] is T1, Recombinant Human TNF-α/TNFSF1A. In words: SPR (Biacore). The procedure:
(§1) The BIACORE assay (Biacore, Inc, Piscataway, N.J.) determined the affinity of antibodies or DVD-Ig proteins with kinetic measurements of on-rate and off-rate constants. Binding of antibodies or DVD-Ig proteins to a target antigen (for example, a purified recombinant target antigen) was determined by surface plasmon resonance-based measurements with a Biacore® 1000 or 3000 instrument (Biacore® AB, Uppsala, Sweden) using running HBS-EP (10 mM HEPES [pH 7.4], 150 mM NaCl, 3 mM EDTA, and 0.005% surfactant P20) at 25° C. All chemicals were obtained from Biacore® AB (Uppsala, Sweden) or otherwise from a different source as described in the text. For example, approximately 5000 RU of goat anti-mouse IgG, (Fcγ), fragment specific polyclonal antibody (Pierce Biotechnology Inc, Rockford, Ill.) diluted in 10 mM sodium acetate (pH 4.5) was directly immobilized across a CM5 research grade biosensor chip using a standard amine coupling kit according to manufacturer's instructions and procedures at 25 μg/ml. Unreacted moieties on the biosensor surface were blocked with ethanolamine. Modified carboxymethyl dextran surface in flowcell 2 and 4 was used as a reaction surface. Unmodified carboxymethyl dextran without goat anti-mouse IgG in flow cell 1 and 3 was used as the reference surface. For kinetic analysis, rate equations derived from the 1:1 Langmuir binding model were fitted simultaneously to association and dissociation phases of all eight injections (using global fit analysis) with the use of Biaevaluation 4.0.1 software. Purified antibodies or DVD-Ig proteins were diluted in HEPES-buffered saline for capture across goat anti-mouse IgG specific reaction surfaces. Antibodies or DVD-Ig proteins to be captured as a ligand (25 μg/ml) were injected over reaction matrices at a flow rate of 5 μl/minute. The association and dissociation rate constants, kₒₙ (M⁻¹s⁻¹) and koff (s⁻¹) were determined under a continuous flow rate of 25 μl/minute. Rate constants were derived by making kinetic binding measurements at different antigen concentrations ranging from 10-200 nM. The equilibrium dissociation constant (M) of the reaction between antibodies or DVD-Ig proteins and the target antigen was then calculated from the kinetic rate constants by the following formula: KD=koff/kₒₙ. Binding was recorded as a function of time and kinetic rate constants were calculated.
In general terms: Surface plasmon resonance follows binding to a sensor surface in real time, without labels.

For assay [3], the target named is T2, Recombinant Human β-NGF (human, UniProt P01138 122-239, limits assumed).
T2 construct: Bought reagent for Biacore; also called huNGF; NGF (Rinat)
T2 sequence (P01138 122-239 limits assumed): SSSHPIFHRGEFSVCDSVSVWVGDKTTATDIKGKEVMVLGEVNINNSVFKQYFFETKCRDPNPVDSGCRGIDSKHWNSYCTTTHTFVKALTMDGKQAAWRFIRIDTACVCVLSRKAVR
Put plainly: SPR (Biacore). The procedure:
as §1

For assay [4], the target named is T3, Recombinant Human SOST (human, UniProt Q9BQB4 24-213).
T3 sequence (looked up): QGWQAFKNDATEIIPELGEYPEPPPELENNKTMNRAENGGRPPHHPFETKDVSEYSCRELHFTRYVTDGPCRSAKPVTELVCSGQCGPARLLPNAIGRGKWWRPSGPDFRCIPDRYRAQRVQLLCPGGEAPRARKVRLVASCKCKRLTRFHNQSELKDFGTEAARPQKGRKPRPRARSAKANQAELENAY
Put plainly: cell-based or functional assay.

Assay [5] addresses T3, Recombinant Human SOST. Put plainly: SPR (Biacore). The procedure: as §1

T1 sequence (P01375 77-233 limits assumed): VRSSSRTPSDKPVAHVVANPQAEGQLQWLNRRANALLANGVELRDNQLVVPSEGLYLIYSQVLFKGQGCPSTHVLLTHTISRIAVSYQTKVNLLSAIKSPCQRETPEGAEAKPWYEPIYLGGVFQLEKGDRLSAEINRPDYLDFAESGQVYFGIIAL

B1: AB218 (antibody, V domains shown)
VH: EVQLVESGGGLIQPGGSLRLSCAASGFTVSRNYMSWVRQAPGKGLEWVSVIYSGDRTYYADSVKGRFTISRDNSKNTLYLQMNSLRAEDTAVYYCARGEGGFDYWGQGTLVTVSS
VL: EIVMTQSPATLSVSPGERATLSCRASQSVSSNLAWYQQKPGQAPRLLIHGASIRATGLPARFSGSGSGTEFTLTISSLQSEDFAVYYCQQYNYWWTFGQGTKVEIKR
notes: Parent antibody
Regarding B1, the “TNFα Neutralization Assay IC50 (L929 cells)” value in assay [1] came out at 0.179 nM. Further, in assay [2], the Kd was determined as 0.041 nM, the koff came to 7.3e-05 s⁻¹ and the on-rate (kon) was 1.8e+06 M⁻¹ s⁻¹.

B2: DVD1985 (bispecific antibody)
DVD-H: DIQMTQSPSSLSASVGDRVTITCRASQSISNNLNWYQQKPGKAPKLLIYYTSRFHSGVPSRFSGSGSGTDFTFTISSLQPEDIATYYCQQEHTLPYTFGQGTKLEIKRTVAAPQVQLVESGGGVVQPGRSLRLSCAASGFTFSSYDMHWVRQAPGKGLEWVAVIWSDGSIKYYADSVKGRFTISRDNSKNTLYLQMNSLRAEDTAVYYCAREVESAMGGFYYNGMDVWGQGTTVTVSS
DVD-L: QVQLQESGPGLVKPSETLSLTCTVSGFSLIGYDLNWIRQPPGKGLEWIGIIWGDGTTDYNSAVKSRVTISKDTSKNQFSLKLSSVTAADTAVYYCARGGYWYATSYYFDYWGQGTLVTVSSASTKGPDIQMTQSPSSLSASVGDRVTITCRASQGIRIDLGWYQQKPGKAPKRLIYAASTLQSGVPSRFSGSGSGTEFIFTISSLQPEDFASYYCLQHKSYPLTFGGGTKVEIK
notes: VH/VL crossover DVD-Ig; also called DVD1985H + DVD1985L; copies: 2 + 2
As for B2, the “C-Terminal VD TNFα Neutralization Assay IC50 (L929 cells)” value in assay [1] is 4.51 nM. Also, in assay [3], the Kd was found to be 0.012 nM, the koff came out at 3.7e-05 s⁻¹ and the on-rate (kon) is 3.1e+06 M⁻¹ s⁻¹. Also, in assay [2], the Kd is 0.43 nM, the koff came to 1.9e-05 s⁻¹ and the on-rate constant (kon) is 45000 M⁻¹ s⁻¹.

B3: DVD1993 (bispecific antibody)
DVD-H: DIQMTQSPSSLSASVGDRVTITCRASQSISNNLNWYQQKPGKAPKLLIYYTSRFHSGVPSRFSGSGSGTDFTFTISSLQPEDIATYYCQQEHTLPYTFGQGTKLEIKRTVAAPEVQLVESGGGLIQPGGSLRLSCAASGFTVSRNYMSWVRQAPGKGLEWVSVIYSGDRTYYADSVKGRFTISRDNSKNTLYLQMNSLRAEDTAVYYCARGEGGFDYWGQGTLVTVSS
DVD-L: QVQLQESGPGLVKPSETLSLTCTVSGFSLIGYDLNWIRQPPGKGLEWIGIIWGDGTTDYNSAVKSRVTISKDTSKNQFSLKLSSVTAADTAVYYCARGGYWYATSYYFDYWGQGTLVTVSSASTKGPEIVMTQSPATLSVSPGERATLSCRASQSVSSNLAWYQQKPGQAPRLLIHGASIRATGLPARFSGSGSGTEFTLTISSLQSEDFAVYYCQQYNYWWTFGQGTKVEIK
notes: VH/VL crossover DVD-Ig; also called DVD1993H + DVD1993L; copies: 2 + 2
On to B3, for which the “C-Terminal VD TNFα Neutralization Assay IC50 (L929 cells)” value in assay [1] was 2.08 nM. In assay [3], the Kd was found to be 0.0047 nM, the koff turned out to be 1.5e-05 s⁻¹ and the kon worked out at 3.3e+06 M⁻¹ s⁻¹. Moreover, in assay [2], the dissociation constant Kd worked out at 0.43 nM, the koff amounted to 3.5e-05 s⁻¹ and the kon is 81000 M⁻¹ s⁻¹.

B4: DVD1982 (bispecific antibody, not shown: a dimerising Fc or GST)
heavy: DIQMTQSPSSLSASVGDRVTITCRASQGIRIDLGWYQQKPGKAPKRLIYAASTLQSGVPSRFSGSGSGTEFIFTISSLQPEDFASYYCLQHKSYPLTFGGGTKVEIKRTVAAPEVQLQQSGPELVTPGASVKISCKASGYTFTDHYMSWVKQSHGKSLEWIGDINPYSGETTYNQKFKGTATLTVDKSSSIAYMEIRGLTSEDSAVYYCARDDYDASPFAYWGQGTLVTVSA
light: QVQLVESGGGVVQPGRSLRLSCAASGFTFSSYDMHWVRQAPGKGLEWVAVIWSDGSIKYYADSVKGRFTISRDNSKNTLYLQMNSLRAEDTAVYYCAREVESAMGGFYYNGMDVWGQGTTVTVSSASTKGPDVQMIQSPSSLSASLGDIVTMTCQASQGTSINLNWFQQKPGKAPKLLIYGSSNLEDGVPSRFSGSRYGTDFTLTISSLEDEDLATYFCLQHSYLPYTFGGGTKLEIKR
Turning to B4, the N-Terminal VD TNFa Neutralization Assay IC50 (L929 cells) in assay [1] stood at 0.017 nM. Also, the C-Terminal VD SOST Neutralization Assay IC50 (Wnt-1/luciferase HEK clone #14) in assay [4] is greater than 100 nM.

B5: AB213 (antibody, V domains shown)
VH: QVQLKESGPGLVAPSQSLSITCTVSGFSLTDYGVNWVRQPPGKGLEWLGMIWGDGSTDYDSTLKSRLSISKDNSKSQIFLKMNSLQTDDTARYYCAREWHHGPVAYWGQGTLVTVSA
VL: DIVMTQSHKFMSTTVGDRVSITCKASQAVSSAVAWYQQKPGQSPKLLIYWASTRHTGVPDRFTGSGSVTDFTLTIHNLQAEDLALYYCQQHYSTPFTFGSGTKLEIKR
notes: Parent antibody
On to B5, for which the “TNFα Neutralization Assay IC50 (L929 cells)” value in assay [1] turned out to be 0.244 nM. In assay [2], the Kd is 0.025 nM, the koff is 8.2e-05 s⁻¹ and the on-rate (kon) stood at 3.2e+06 M⁻¹ s⁻¹.

B6: DVD1959 (bispecific antibody, not shown: a dimerising Fc or GST)
heavy: DVQMIQSPSSLSASLGDIVTMTCQASQGTSINLNWFQQKPGKAPKLLIYGSSNLEDGVPSRFSGSRYGTDFTLTISSLEDEDLATYFCLQHSYLPYTFGGGTKLEIKRTVAAPQVQLKESGPGLVAPSQSLSITCTVSGFSLTDYGVNWVRQPPGKGLEWLGMIWGDGSTDYDSTLKSRLSISKDNSKSQIFLKMNSLQTDDTARYYCAREWHHGPVAYWGQGTLVTVSA
light: EVQLQQSGPELVTPGASVKISCKASGYTFTDHYMSWVKQSHGKSLEWIGDINPYSGETTYNQKFKGTATLTVDKSSSIAYMEIRGLTSEDSAVYYCARDDYDASPFAYWGQGTLVTVSAASTKGPDIVMTQSHKFMSTTVGDRVSITCKASQAVSSAVAWYQQKPGQSPKLLIYWASTRHTGVPDRFTGSGSVTDFTLTIHNLQAEDLALYYCQQHYSTPFTFGSGTKLEIKR
Regarding B6, the C-Terminal VD TNFα Neutralization Assay IC50 (L929 cells) in assay [1] was determined as 1.52 nM. The N-Terminal VD SOST Neutralization Assay IC50 (Wnt-1/luciferase HEK clone #14) in assay [4] was 54.2 nM.

B7: AB022 (antibody, V domains shown)
VH: EVQLQQSGPELVTPGASVKISCKASGYTFTDHYMSWVKQSHGKSLEWIGDINPYSGETTYNQKFKGTATLTVDKSSSIAYMEIRGLTSEDSAVYYCARDDYDASPFAYWGQGTLVTVSA
VL: DVQMIQSPSSLSASLGDIVTMTCQASQGTSINLNWFQQKPGKAPKLLIYGSSNLEDGVPSRFSGSRYGTDFTLTISSLEDEDLATYFCLQHSYLPYTFGGGTKLEIKR
notes: Parent antibody; also called SOST parent antibody
Consider B7, for which the “SOST Neutralization Assay IC50 (Wnt-1/luciferase HEK clone #14)” value in assay [4] is 34.8 nM. For the same molecule, in assay [5], the Kd worked out at 0.018 nM, the koff was determined as 0.00038 s⁻¹ and the kon was found to be 2.1e+07 M⁻¹ s⁻¹.

B8: AB217 (antibody, V domains shown)
VH: QVQLVESGGGVVQPGRSLRLSCAASGFTFSSYDMHWVRQAPGKGLEWVAVIWSDGSIKYYADSVKGRFTISRDNSKNTLYLQMNSLRAEDTAVYYCAREVESAMGGFYYNGMDVWGQGTTVTVSS
VL: DIQMTQSPSSLSASVGDRVTITCRASQGIRIDLGWYQQKPGKAPKRLIYAASTLQSGVPSRFSGSGSGTEFIFTISSLQPEDFASYYCLQHKSYPLTFGGGTKVEIKR
notes: Parent antibody
For B8, in assay [1], the “TNFα Neutralization Assay IC50 (L929 cells)” value was determined as 0.313 nM. For the same molecule, in assay [2], the Kd was 0.028 nM, the koff was determined as 4.8e-05 s⁻¹ and the kon stood at 1.7e+06 M⁻¹ s⁻¹.

B9: DVD1983 (bispecific antibody, not shown: a dimerising Fc or GST)
heavy: DVQMIQSPSSLSASLGDIVTMTCQASQGTSINLNWFQQKPGKAPKLLIYGSSNLEDGVPSRFSGSRYGTDFTLTISSLEDEDLATYFCLQHSYLPYTFGGGTKLEIKRTVAAPQVQLVESGGGVVQPGRSLRLSCAASGFTFSSYDMHWVRQAPGKGLEWVAVIWSDGSIKYYADSVKGRFTISRDNSKNTLYLQMNSLRAEDTAVYYCAREVESAMGGFYYNGMDVWGQGTTVTVSS
light: EVQLQQSGPELVTPGASVKISCKASGYTFTDHYMSWVKQSHGKSLEWIGDINPYSGETTYNQKFKGTATLTVDKSSSIAYMEIRGLTSEDSAVYYCARDDYDASPFAYWGQGTLVTVSAASTKGPDIQMTQSPSSLSASVGDRVTITCRASQGIRIDLGWYQQKPGKAPKRLIYAASTLQSGVPSRFSGSGSGTEFIFTISSLQPEDFASYYCLQHKSYPLTFGGGTKVEIKR
Consider B9, for which the C-Terminal VD TNFα Neutralization Assay IC50 (L929 cells) in assay [1] came out at 0.127 nM. Moreover, the N-Terminal VD SOST Neutralization Assay IC50 (Wnt-1/luciferase HEK clone #14) in assay [4] is greater than 360 nM.

For orientation: Kd means the concentration at which binding is half-saturated. As a reminder, the koff is a measure of how fast the partners let go of each other. In general, kon refers to the second-order rate constant of association.
